The values below come from patent publication US20090111769A1, “Antithrombotic Compound” (priority 2005, published 2009).

The term IC50 denotes the concentration needed to halve the response being measured. In general, Tmax refers to the time from dosing to the highest level. What is called AUC(0-inf) is the area under the concentration-time curve extrapolated to infinity. Low values mean less exposure, high ones more exposure. Usually Cmax stands for the maximum level reached in the sampled fluid or tissue.

For data set [1], the system named is human platelet aggregation induced by TRAP. Put plainly: In vitro test for inhibition of human platelet aggregation induced by TRAP (washed platelets). The format is cell-based. The conditions noted are these: read-out: IC50, inhibition of human platelet aggregation induced by 5 μM TRAP. The procedure:
This aggregation can be determined by measuring the optical density of the WPL. The in vitro test described here is used to analyze the activity of a test compound to inhibit TRAP-induced aggregation of human platelets. […] Between two measurements, the plate is shaking for 40 seconds at 1,000 rpm.

Data set [2] concerns human platelet aggregation induced by ADP. Briefly: In vitro test for inhibition of human platelet aggregation induced by ADP (platelet rich plasma). The format is cell-based. As to conditions: read-out: IC50, inhibition of human platelet aggregation induced by 5 μM ADP. As for the experimental part: • 1. Sysmex blood cell counter model KX-21. • 2. […] Absorption is measured with the Labsystems iEMS program. • 3. Blood collection system 600 mL with needle, art P4203 (NPBI). • 4.
The optical density (OD620) is then measured at 620 nm. […] This is to verify the stability of the platelets (absence of spontaneous platelet aggregation). […] Between two measurements, the plate is shaking for 40 seconds at 1,000 rpm. Each test compound is investigated in at least 2 experiments using PRP from different volunteers.
The mean OD at each compound concentration (including vehicle) is calculated at t=0 min and t=10 min. The percentage inhibition at each concentration is calculated using the formula: […]

Data set [3] can be described thus: Pharmacokinetics after s.c. administration in rat (plasma concentration by anti-Xa activity). Type of data set: in vivo, male Wistar rats. The conditions noted are these: male, Wistar, sc, 500 nmol/kg. The procedure:
The pharmacokinetic properties of compound 3 were studied in male Wistar rats of 300-400 gr. The rats were anaesthetized by inhalation of a mixture of O2/N2O/isoflurane, after which the right jugular vein was cannulated. The next day rats were treated s.c. with doses of 100 or 500 nmol/kg. After s.c. administration, blood was sampled at several time intervals. Then the blood was centrifuged after which the plasma was siphoned off and stored at −20° C. until use. The concentration of the tested compound was measured amidolytically with S2222 (Chromogenix, Chromogenics Ltd, Molndal, Sweden) by determination of the anti-Xa activity based on the method of Teien and Lie in the obtained plasma samples against a calibration curve which was made of the stock solution of the tested compound itself. (Teien A N, Lie M. Evaluation of an amidolytic heparin assay method increased sensitivity by adding purified antithrombin III. Thromb. Res. 1977, 10: 399-410). The concentration in the samples was expressed in nmol/mL and the kinetic parameters were calculated with the noncompartment model of WinNonlin.

SMILES strings stand for the structures. Counter-ions that a name gives are not always drawn.

Take `CCCCS(=O)(=O)N[C@@H](Cc1ccc(OCCCCC2CCNCC2)cc1)C(=O)O` [tirofiban]: the IC50 in data set [1] and in data set [2] was 30 to 60 nM each time.

Consider `CO[C@H]1O[C@H](COS(=O)(=O)O)[C@@H](O[C@@H]2O[C@@H](C(=O)O)[C@@H](O[C@H]3O[C@H](COS(=O)(=O)O)[C@@H](O[C@@H]4O[C@H](C(=O)O)[C@@H](O[C@H]5O[C@H](COS(=O)(=O)O)[C@@H](OCCOCCOCCOCCNC(=O)COCCOCCOCCOCCNC(=O)c6cccc(S(=O)(=O)N[C@@H](Cc7ccc(OCCCCC8CCNCC8)cc7)C(=O)O)c6)[C@H](OC)[C@H]5OC)[C@H](OC)[C@H]4OC)[C@H](OS(=O)(=O)O)[C@H]3OS(=O)(=O)O)[C@H](OC)[C@H]2OC)[C@H](OS(=O)(=O)O)[C@H]1OS(=O)(=O)O` [Compound 3, sodium salt], for which the Tmax in data set [3] (n = 3) worked out at 2.5 h. In data set [3] (n = 3, mean ± s.e.m.), this molecule returned an AUC(0-inf) of 75.3 ± 3.2 µM·h and a Cmax of 5 ± 0.4 µM. The half-life in data set [3] (n = 3, mean ± s.e.m., read-out: T½ eli (converted)) is 558 ± 12 min.
